{"source": "paper PMC7591906", "about": "“pHLIP ICG for delineation of tumors and blood flow during fluorescence-guided surgery” (Scientific Reports, 2020)", "key": {"[1]": {"system": "MDA-MB-231, 4T1, A549, LLC, M4A4, HeLa, UM-UC3 and LNCaP tumors", "test": "Tumor targeting, NIR fluorescence imaging in different tumor models", "type": "in vivo, athymic female nude mice", "settings": "24 h after single i.v. 0.5 mg/kg, 8 tumor models, Stryker clinical imaging system, skin removed", "experimental": "Targeting of murine and human tumors was shown in 8 different tumor models in athymic female nude mice (strain Hsd Athymic Nude-Foxn1nu) ranging in age from 5 to 6 weeks (obtained from Envigo RMS, Inc). The following tumors were established by subcutaneous injection of 1 x 10^6 cells/0.1 ml/flank in flanks of athymic nude mice: HeLa (humans cervical adenocarcinoma), M4A4 (human epithelial carcinoma), 4T1 (murine breast tumor), A549 (human lung carcinoma), LLC (murine Lewis Lung carcinoma), UM-UC3 (human urinary bladder cancer), and 4 x 10^6 cells/0.1 ml/flank of LNCaP tumor (human prostate cancer). Human MDA-MB-231 (breast adenocarcinoma) tumors were established by injections of 1 x 10^6 cells/0.05 ml in the mammary fat pad. […] Finally, surgery was carried out under fluorescence-guidance to remove tumor and to image the tumor bed using the Stryker SPY-PHI handheld clinical imaging system."}, "[2]": {"test": "Local tolerance/irritancy in New Zealand white rabbits (GLP)", "type": "in vivo", "settings": "single 0.124 and 1.86 mg/kg, i.v., intra-arterial, perivenous and subcutaneous", "experimental": "The objective of this GLP study performed at CRL was to compare the i.v., intra-arterial, perivascular and subcutaneous routes for potential irritation following a single injection of pHLIP ICG in the rabbits.\nThe following parameters and end points were evaluated in this study: clinical signs, local irritation assessment, body weights (for dose calculation only), and histopathology of the injection sites. There were no clinical signs, local irritation or any microscopic changes associated with pHLIP ICG during the study."}, "[3]": {"test": "Peripheral blood micronucleus test in rats (GLP)", "type": "in vivo, Sprague Dawley rats", "experimental": "The objective of this GLP study performed at CRL was to determine the potential genotoxicity of pHLIP ICG when given by i.v. bolus injection to rats using the peripheral blood micronucleus test.\nIn order to determine the maximum tolerated dose, a dose-range finding test was performed prior to the main test, where male and female rats (3 animals/sex) were administered a single dose of pHLIP ICG by i.v. injection. The doses evaluated were 14 mg/kg and 25 mg/kg using 5% EtOH in PBS, pH 7.4 as the vehicle.\nBlood was collected for micronuclei evaluation at 45 hours post-dose (Groups 3 to 7), and 69 hours post-dose (Groups 3 and 7). The proportion of immature erythrocytes among total erythrocytes in the peripheral blood (%RETs) and the percentage of micronucleated reticulocytes (%MN-RETs) in the NC group were within the laboratory historical negative control range. […] The results from both NC and PC groups confirmed the validity of the assay."}, "[4]": {"test": "Kinetics of insertion into POPC liposomes (stopped-flow tryptophan fluorescence)", "type": "physicochemical", "settings": "pH drop from pH 8 to pH 5, Trp fluorescence, bi-exponential fit, about 15% of final adjustment", "experimental": "POPC (1-palmitoyl-2-oleoyl-sn-glycero-3-phosphocholine, Avanti Polar Lipids, Inc.) liposomes were used in biophysical measurements to mimic cell membranes and investigate the pHLIP ICG interactions with lipid bilayers. Large unilamellar vesicles (LUVs) were prepared by extrusion. POPC dissolved in chloroform was desolvated in a rotary evaporator and placed under high vacuum for 2 hours to create a phospholipid film. Lipids were then rehydrated in phosphate buffer (pH8) and repeatedly extruded through membranes with a pore size of 100 nm to make LUVs.\nTo follow pHLIP ICG insertion into the lipid bilayer of POPC liposomes in real-time, kinetics measurements were performed using a SFM-300 mixing system (Bio-Logic Science Instruments) in combination with a MOS-450 spectrometer with its temperature control set to 25.0°C. pHLIP ICG pre-mixed with POPC liposomes in phosphate buffer at pH8 were mixed (5 ms dead time) with acid to drop the pH from pH8 to pH5 and promote pHLIP peptide insertion into the bilayers. The insertion process was monitored by recording changes of the tryptophan fluorescence of pHLIP peptide excited at 295 nm and using a cut off filter at 320 nm."}, "[5]": {"settings": "male rats, single i.v. 6.25, 12.5 and 25 mg/kg"}}, "note": "Entries after “also recorded” stand apart in the source; their conditions may differ. Peptide text beside a SMILES is read from it. * marks the point of attachment. X1 = CC1(C)C(/C=C/C=C/C=C/C=C2/N(CCCCCC(=O)NCCN3C(=O)CC(*)C3=O)c3ccc4ccccc4c3C2(C)C)=[N+](CCCCS(=O)(=O)[O-])c2ccc3ccccc3c21", "data": [{"smiles": "CC(C)C[C@H](NC(=O)[C@H](Cc1ccc(O)cc1)NC(=O)[C@H](C)NC(=O)[C@H](CCCNC(=N)N)NC(=O)[C@H](Cc1c[nH]c2ccccc12)NC(=O)[C@@H]1CCCN1C(=O)[C@H](CC(N)=O)NC(=O)[C@H](CCC(N)=O)NC(=O)[C@H](CC(=O)O)NC(=O)[C@H](CC(=O)O)NC(=O)[C@H](CSC1CC(=O)N(CCNC(=O)CCCCCN2/C(=C/C=C/C=C/C=C/C3=[N+](CCCCS(=O)(=O)[O-])c4ccc5ccccc5c4C3(C)C)C(C)(C)c3c2ccc2ccccc32)C1=O)NC(=O)[C@H](C)N)C(=O)N[C@@H](CC(=O)O)C(=O)N[C@@H](CC(C)C)C(=O)N[C@@H](CC(C)C)C(=O)N[C@@H](Cc1ccccc1)C(=O)N1CCC[C@H]1C(=O)N[C@H](C(=O)N[C@@H](CC(=O)O)C(=O)N[C@H](C(=O)N[C@@H](CC(C)C)C(=O)N[C@@H](CC(C)C)C(=O)N[C@@H](CC(C)C)C(=O)N[C@@H](CC(=O)O)C(=O)N[C@@H](CC(C)C)C(=O)N[C@@H](CC(C)C)C(=O)N[C@@H](Cc1c[nH]c2ccccc12)C(=O)N[C@@H](C)C(=O)O)[C@@H](C)O)[C@@H](C)O", "note": "(stereo partly drawn) [pHLIP ICG] (H-AC(X1)DDQNPWRAYLDLLFPTDTLLLDLLWA-OH)", "values": [{"measurement": "Tumor targeting", "setting": "[1]", "result": "Excellent tumor targeting"}, {"measurement": "Local tolerance", "setting": "[2]", "result": "well tolerated; also recorded: well-tolerated and did not result in any pHLIP ICG-related changes"}, {"measurement": "Genotoxic activity (%MN-RETs)", "setting": "[3]; [5]", "result": "did not induce cytogenetic damage; also recorded: showed no evidence of genotoxic activity"}, {"measurement": "Reduction in %RETs (cytotoxicity)", "setting": "[3]; [5]", "result": "No substantial reduction"}, {"measurement": "Clinical signs in dose-range finding test", "setting": "[3]; rats 3 animals/sex, single i.v. 14 mg/kg and 25 mg/kg", "result": "no adverse clinical signs were noted"}, {"measurement": "Rate of insertion into lipid bilayer, slow component", "setting": "[4]", "result": 0.077, "unit": "s⁻¹"}]}]}
